± gives the standard deviation of the averaged measurements.
These sequences were tested on Saccharomyces cerevisiae (assay: protein stability index of tFT-peptide fusion (C-terminal peptide) (PSI (0-1 scale)); higher = more stable (slower turnover)). Details: genetic background: wild type; temperature: 30 C.
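Also: PSI is a weighted mean of sequencing reads over stability bins, variants kept only with over 10 reads, mCherry proximal and sfGFP distal, peptide attached via GGGS linker.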

Sequence | protein stability index
TGRGGAPRAKEE | 0.699 ± 0.0039
EGPTRIKRGRSG | 0.685 ± 0.031
PPSVLPLPPSLP | 0.732 ± 0.043
RALPSPPPCPPG | 0.524 ± 0.031
FSLPFLFCRPLS | 0.6279 ± 0.0042
FLCSRYRGYMPT | 0.632 ± 0.086
GRGGGSRIVGGV | 0.704 ± 0.023
TTRTAAKKIHKD | 0.74 ± 0.055
FAGGAVNIGVVG | 0.71 ± 0.015
PTPLSRPPTNAA | 0.634 ± 0.042
GHVGFSKVSGKG | 0.664 ± 0.026
RSTSGACSRRWL | 0.624 ± 0.025
PDRSLASPPTTR | 0.711 ± 0.069
EDRTQEIQNIHD | 0.686 ± 0.012
VDRAFVWYLRDL | 0.695 ± 0.0076
AKNQSTGCKKKV | 0.684 ± 0.043
CGLFFSCVGVSG | 0.6411 ± 0.005
IIVPCGRWEGGG | 0.69 ± 0.017
ISLLIFSPTLFS | 0.687 ± 0.035
LFRWLLRLVISH | 0.608 ± 0.021
LSPVRRAPCPLG | 0.6905 ± 0.0019
DIVSGGLCVEVL | 0.643 ± 0.033
PLSNAPRPSQVA | 0.736 ± 0.056
RVLPPAPLQALQ | 0.645 ± 0.018
ASSLLPIPPPPF | 0.706 ± 0.012
RAVFNMSSPSHI | 0.711 ± 0.077

Sequence | protein stability index
LPSPYPMPPPLP | 0.736 ± 0.018
KVIRVEALEILV | 0.544 ± 0.023
EKKKKKPKKKRK | 0.687 ± 0.026
QYKEFYYQNNRR | 0.562 ± 0.062
VPTELGGTLIPT | 0.664 ± 0.11
MINYGLARKKAR | 0.733 ± 0.02
PPPPPPLSPPSP | 0.659 ± 0.012
VFPPRPPRAFPP | 0.662 ± 0.00098
VGCVFVASRLVL | 0.627 ± 0.038
RRLAGRPVTRGA | 0.667 ± 0.015
YPALCSRFFAPS | 0.711 ± 0.039
MRPRTSKKPQLE | 0.744 ± 0.044
SFCYFSCPSLIM | 0.718 ± 0.11
PPVRPRPDPACR | 0.727 ± 0.031
EQRRAGPAEVTK | 0.694 ± 0.04
VFRFRARRYNES | 0.655 ± 0.079
TRRRGGAREGPY | 0.758 ± 0.064
KKPVALVESRRV | 0.662 ± 0.055
SNGGCIMSNIYS | 0.758 ± 0.059
GETVGCARLRLS | 0.566 ± 0.023
PRIPPPIPPDTP | 0.695 ± 0.045
ELDFVVNKIQDW | 0.828 ± 0.096
SLLSCDETEFSS | 0.614 ± 0.051
ASRPAPPAPAFL | 0.675 ± 0.005
ESRWRSPCFIIW | 0.626 ± 0.11
AKRRTNRLHCNA | 0.6427 ± 0.0029

Sequence | protein stability index
PPIRLPSPLLPH | 0.7123 ± 0.0056
SGLRHACTPKSD | 0.671 ± 0.024
FRLKRFSGTGYG | 0.698 ± 0.035
RRPGSTTPPAYR | 0.675 ± 0.048
PPLPPSPRLLPP | 0.635 ± 0.056
GLVSALSGLLTP | 0.651 ± 0.089
DKKATTSIGIKK | 0.642 ± 0.07
HKRCCIPTNDSQ | 0.6991 ± 0.0063
GGFDDIYVPIFV | 0.694 ± 0.012
INPLAHCSISRS | 0.7086 ± 0.0066
VTFRCHHSRQVM | 0.725 ± 0.14
PRLCFPPPPAPA | 0.688 ± 0.083
LLPSLFLLPPSA | 0.743 ± 0.094
VVWRRVIGGLVM | 0.637 ± 0.031
PPPSPFLPPRAP | 0.709 ± 0.051
PPSMRQRKRSGP | 0.746 ± 0.028
VVGSVFGGVRAA | 0.708 ± 0.032
KKGNKYNNKRKK | 0.69 ± 0.04
PPPSPPPTSNPN | 0.742 ± 0.04
PPPSPPPPPLLP | 0.6508 ± 0.0016
LFTPLLVPYPTP | 0.522 ± 0.0028
SCLATDSWLAFV | 0.665 ± 0.058
SFFGRVDSRSLP | 0.7184 ± 0.0025
VRVSSSDILICL | 0.675 ± 0.079
EKSQMPPAPAPK | 0.703 ± 0.04
RFCGSGPIVPGQ | 0.707 ± 0.019

Sequence | protein stability index
VCLVCLFNACRF | 0.608 ± 0.032
GGIGVGGGHMLL | 0.656 ± 0.024
GMRFDTERKWLL | 0.695 ± 0.084
GGVEGGGCVGGG | 0.581 ± 0.014
ITGLRNSRFNRP | 0.652 ± 0.0068
VFGLSPLLQPSD | 0.654 ± 0.0086
YSLPPAPQPLPP | 0.772 ± 0.092
GRCGGEGGGEEE | 0.673 ± 0.031
HCLLLSLVFFFW | 0.727 ± 0.03
HSPPSPHFPHHH | 0.6609 ± 0.0043
RGARWRAGIGRG | 0.739 ± 0.088
PPPIYTPPPPPL | 0.697 ± 0.053
DPFFPPYTPSPS | 0.782 ± 0.049
LRPRRCWNQWDM | 0.675 ± 0.048
SDVRANAYRPEH | 0.688 ± 0.042
KKTPKKKHKKKR | 0.679 ± 0.12
VHPHPRSIKRER | 0.6324 ± 0.0026
HLLCPLSPYICH | 0.681 ± 0.02
ALATPLWDLMPP | 0.606 ± 0.072
TRGAGAKYSSVR | 0.721 ± 0.019
VLSVGQVGRCVS | 0.642 ± 0.043
PPRPPSPLPLPP | 0.687 ± 0.016
SLPLPPPVRPLL | 0.689 ± 0.047
STPSMGSMTRLE | 0.731 ± 0.041
RSNECTSEMEVC | 0.689 ± 0.04
SGEVIRVTDWLV | 0.719 ± 0.038

Sequence | protein stability index
SATSFLAAGPPT | 0.6957 ± 0.0063
PSLPRLPLCPLP | 0.704 ± 0.018
VLFGLFAPCFLF | 0.59 ± 0.019
AEGKGRCRRSCW | 0.693 ± 0.072
SYLPLGTVLMLG | 0.681 ± 0.032
KSEMAIIEKKEN | 0.667 ± 0.055
GYLPPPDSLSSS | 0.672 ± 0.023
SLPPLPSPPCPP | 0.712 ± 0.044
CVSSALRVPGRE | 0.699 ± 0.027
RNKLEKKIYKRS | 0.672 ± 0.014
WGRGGSGGSWGA | 0.688 ± 0.018
PSLPLPSPPPFP | 0.643 ± 0.1
QGQAEREAERRS | 0.6732 ± 0.0059
SGLRAFVVTLID | 0.673 ± 0.011
LNLTAPPPPHLV | 0.6721 ± 0.0066
YGNSFLVRPPGD | 0.712 ± 0.05
GSVGDASYAAVW | 0.819 ± 0.034
KKKKIKKKTKKE | 0.667 ± 0.027
LGDVRRENKQLP | 0.6981 ± 0.003
LPNTWLTSLIHQ | 0.701 ± 0.33
LKYETGTILRMT | 0.563 ± 0.013
CCILTHFSSCET | 0.679 ± 0.011
APARPCPLLSTS | 0.612 ± 0.034
LMGGMIRDMVWG | 0.643 ± 0.13
VLFSSDLIVPQL | 0.725 ± 0.018
SHWCLQTQAACK | 0.65529 ± 0.00032

Sequence | protein stability index
SSFRASVRSRKT | 0.692 ± 0.022
KKKKKNSRKKQQ | 0.7108 ± 0.0018
PLSPSPPPASLL | 0.702 ± 0.018
CAVLGGGVVWGA | 0.668 ± 0.028
APPTSPLPIPSP | 0.698 ± 0.017
TSPSLSALLSFV | 0.715 ± 0.073
LRLGRDLMGEGV | 0.661 ± 0.072
IGTRHIKILGRY | 0.698 ± 0.047
LSTPPLPPPPPP | 0.689 ± 0.058
KRKAQEVNSKKK | 0.703 ± 0.011
GNKKRDSDKIKE | 0.6054 ± 0.0028
PPPAPPCFAPFP | 0.673 ± 0.019
DKDWDHGSLCIP | 0.692 ± 0.074
ILCTVVKTDSKE | 0.702 ± 0.081
SLPPPPARAAIL | 0.668 ± 0.07
VVAGGERMRTGV | 0.671 ± 0.022
PPAPPLFVSSPG | 0.684 ± 0.048
SPPPPPPARCPS | 0.592 ± 0.045
ACPGGPFALRSH | 0.666 ± 0.029
GSQVGVRWGRFG | 0.675 ± 0.0079
PNLKKHFRADEP | 0.6832 ± 0.0036
RSFLTDLLRGAA | 0.647 ± 0.054
LKNKVDGKVSGK | 0.6014 ± 0.0045
EWALAESGYDEP | 0.746 ± 0.05
MCPRFCPPLRSF | 0.686 ± 0.084
RVRGAPGLRHES | 0.5 ± 0.1

Sequence | protein stability index
YYLCHIEEFLSS | 0.622 ± 0.072
ILSASSLFPFVS | 0.693 ± 0.053
PFSPPPSTQPSY | 0.754 ± 0.15
SSVEREEEGGGG | 0.676 ± 0.11
HPWAFRIRTPRL | 0.752 ± 0.09
LIMLNNIENSSI | 0.678 ± 0.01
LGVIHPSVYFCL | 0.5416 ± 0.0023
KIRFGRCLRSSF | 0.746 ± 0.033
IDVIIESVFSLF | 0.619 ± 0.09
LTVVNFFPLGSP | 0.67 ± 0.064
EGIVRYRKRGSR | 0.665 ± 0.015
DGRMGAGVAGTG | 0.636 ± 0.069
FQVCAPLPISRS | 0.717 ± 0.029
WICFDFLLPVAL | 0.549 ± 0.025
PPPSPLLLFPPL | 0.645 ± 0.11
ARIQECLTKASK | 0.607 ± 0.095
ALPLSPRTHRCS | 0.503 ± 0.097
CLGVCAFSFCCN | 0.624 ± 0.012
HGCVWCSGLFGV | 0.739 ± 0.029
PRFPQPSTLLPP | 0.698 ± 0.021
LRCLLAHIAGRG | 0.67065 ± 0.00044
RGDVGVGHWVGG | 0.708 ± 0.0093
IVEERLFWKMWE | 0.659 ± 0.015
ASPLSIPPLSPS | 0.633 ± 0.073
LIIGYFSSRVCL | 0.61 ± 0.074
PGPPFPMANTPF | 0.646 ± 0.048

Sequence | protein stability index
NWARLGVRMGAA | 0.66 ± 0.013
LLSLSCLPLHFR | 0.574 ± 0.088
SGPRRECVPRSV | 0.682 ± 0.066
RSANIINPHIFP | 0.758 ± 0.014
NQERYKKIRSKQ | 0.714 ± 0.054
SLPRPASYPPRF | 0.652 ± 0.079
IERKNYPQNRRQ | 0.62 ± 0.046
VAGDGYDVMDNG | 0.553 ± 0.029
CLRGLLVMLYQR | 0.54 ± 0.01
VPLCSGKLAQIS | 0.757 ± 0.0085
KKYKKKKKRARY | 0.698 ± 0.019
DEKKMEKQTNRT | 0.638 ± 0.045
PLTPPPALILFP | 0.693 ± 0.022
YLADPSPSIPIL | 0.649 ± 0.02
IMTNGADRERYR | 0.736 ± 0.034
PPPPPLPPPTPP | 0.568 ± 0.024
SFFFRSYCFPAP | 0.7169 ± 0.0037
GGGGVVGVVRVG | 0.658 ± 0.044
LVSEGKRLDVVF | 0.581 ± 0.076
FLNRDGFETLFC | 0.686 ± 0.022
